This data set has as its system ATP. Briefly: switch fluorescence ratio, 500 uM ATP over buffer (Cy3 cluster intensity, sum of 5 cycles each) (fold (ratio)); higher = stronger signal-on switching upon ATP binding; sequences stand for … in TCGTCGGCAGCGTCAGATGTGTATAAGAGACAGTTTTTTTTTTTTTTTTTTTTTTTTT…TC. To be noted: aptamer strand: ATP DNA aptamer (quencher-CACCTGGGGGAGTATTGCGGAGGAAGG + anchor), 100 nM annealed; ATP concentration: 500 uM. In short, it runs like this: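 The quencher-labelled ATP aptamer, at 100 nM, was annealed to Cy3-labelled switching-strand clusters on a modified Illumina MiSeq flow-cell. The clusters were imaged in selection buffer, then after 15 min with 500 uM ATP at 22 °C, and this buffer/ATP cycle ran five times with NaOH stripping and re-annealing between runs. Per-cluster fluorescence ratios, summed target-cycle over summed buffer-cycle Cy3 intensity, were averaged per switch-domain sequence. Clusters outside 100-1000 RFU were excluded.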

± gives the standard deviation of the averaged measurements.
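Note: ATP exposure 15 min at 22 °C before imaging.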

With TTTTTTTCGA, the switch fluorescence ratio stood at 1.01 ± 0.022.

In the case of ATGGATCGAT, the switch fluorescence ratio amounted to 0.967 ± 0.037.

Regarding TAACATGGCG, the switch fluorescence ratio was determined as 0.959 ± 0.11.

With AGGTATAAGG, the switch fluorescence ratio was 1.02 ± 0.019.

As to TTGGGGCCCT, the switch fluorescence ratio amounted to 1.01 ± 0.029.

For AATATTTGTG, the switch fluorescence ratio was 1.15 ± 0.23.

As to TATCATTGGG, the switch fluorescence ratio came out at 0.968 ± 0.029.

Consider CGTGTTTGTT, for which the switch fluorescence ratio was 0.988 ± 0.022.

Regarding CACTACGGGA, the switch fluorescence ratio turned out to be 1.05 ± 0.012.

On to CCGGTTGCTG, for which the switch fluorescence ratio turned out to be 1.12 ± 0.066.

Turning to TTAAGATTCT, the switch fluorescence ratio was 0.993 ± 0.037.

TTCCATATGT: the switch fluorescence ratio amounted to 0.975 ± 0.021.

As to GGTTAATGGA, the switch fluorescence ratio was 0.9833 ± 0.0035.

Regarding GACTCTTGAA, the switch fluorescence ratio came to 0.995 ± 0.071.

Turning to AGATTCATCA, the switch fluorescence ratio is 0.9931 ± 0.0055.

On to TGAGGTATG, for which the switch fluorescence ratio worked out at 0.971 ± 0.046.

In the case of ACGTGCAACT, the switch fluorescence ratio came out at 0.981 ± 0.049.

Turning to TTGATAGGGT, the switch fluorescence ratio was determined as 1.01 ± 0.026.

For TTTCGATTGC, the switch fluorescence ratio amounted to 1.004 ± 0.01.

On to GGGGGAAGAC, for which the switch fluorescence ratio worked out at 1.04 ± 0.053.

As for ATTTCTAGGG, the switch fluorescence ratio amounted to 1.027 ± 0.0041.

Turning to CACTGGCCGA, the switch fluorescence ratio came to 1.035 ± 0.01.

TCGACTGGGG: the switch fluorescence ratio came to 1 ± 0.034.

CGGGGCATGG: the switch fluorescence ratio amounted to 1 ± 0.039.

On to CGAAAAGGTG, for which the switch fluorescence ratio came to 1.05 ± 0.054.

Turning to CTGTTTGGGG, the switch fluorescence ratio was 1.004 ± 0.0028.

Regarding CGGCTTAGAT, the switch fluorescence ratio was 0.984 ± 0.028.

As for TTTCCATATT, the switch fluorescence ratio stood at 0.984 ± 0.019.

On to TGGATGTGGC, for which the switch fluorescence ratio is 0.963 ± 0.031.

As for ATTAGACATT, the switch fluorescence ratio came to 1.003 ± 0.0016.

As for AGGGCTGCTA, the switch fluorescence ratio was 0.996 ± 0.046.

As for TTGCTTATGG, the switch fluorescence ratio worked out at 1.01 ± 0.015.

In the case of AAGTTATAAC, the switch fluorescence ratio was found to be 0.956 ± 0.067.

With GGCGGGCATG, the switch fluorescence ratio is 1.021 ± 0.0011.

Take GAGCTTTTGG: the switch fluorescence ratio is 1.03 ± 0.068.

Regarding ATGTGGTTGT, the switch fluorescence ratio was 0.97 ± 0.019.

On to AGAGGGGCCA, for which the switch fluorescence ratio was determined as 1.01 ± 0.048.

For ATTTTCTTTG, the switch fluorescence ratio came to 0.9958 ± 0.0089.

With TCAAGACCTT, the switch fluorescence ratio was determined as 1.19 ± 0.014.

As for AGCATAAGC, the switch fluorescence ratio worked out at 1.04 ± 0.012.

Consider AACCCAAGGG, for which the switch fluorescence ratio worked out at 1.09 ± 0.055.

In the case of TGAGGTATTA, the switch fluorescence ratio worked out at 1.0075 ± 0.00077.

As to TGCTAGAACT, the switch fluorescence ratio was 0.972 ± 0.019.

For GAAGGCGGTT, the switch fluorescence ratio is 1.029 ± 0.0037.

With CGTTGGCGAG, the switch fluorescence ratio came to 1.01 ± 0.031.

Take TTGGGTATTA: the switch fluorescence ratio was determined as 0.9656 ± 0.0024.

As for GCAGGGAAGG, the switch fluorescence ratio is 1.03 ± 0.035.

For the sequence ATGGGTCCGG, the switch fluorescence ratio was 1.02 ± 0.037.

With CGGTTCTCTC, the switch fluorescence ratio came to 1.02 ± 0.013.

Regarding AATATTGGAT, the switch fluorescence ratio is 1.01 ± 0.023.

For the sequence AATCTAGTGT, the switch fluorescence ratio came out at 0.996 ± 0.019.

Turning to GGGGGATCGG, the switch fluorescence ratio is 1.01 ± 0.022.

For TGTTTAGGGG, the switch fluorescence ratio came to 1.01 ± 0.025.

CCGCTTGGTT: the switch fluorescence ratio was determined as 1.23 ± 0.028.

Regarding TTCTATTTCT, the switch fluorescence ratio came out at 0.9872 ± 0.0039.

Take ATGAGGGTCT: the switch fluorescence ratio amounted to 0.999 ± 0.044.

As for AGTAACTTGA, the switch fluorescence ratio came to 1 ± 0.013.

For the sequence ATAGTGGTGC, the switch fluorescence ratio is 0.958 ± 0.067.

As for AAATTCGGTT, the switch fluorescence ratio turned out to be 0.99 ± 0.013.

In the case of TTGATTTTTG, the switch fluorescence ratio was 1.01 ± 0.03.

On to GGGTTTTTTT, for which the switch fluorescence ratio was found to be 0.998 ± 0.044.

As to TATGTGAGCT, the switch fluorescence ratio was determined as 1.01 ± 0.024.

ATTGGTTTGG: the switch fluorescence ratio is 1.032 ± 0.01.

In the case of GAAGTGAGGG, the switch fluorescence ratio is 0.995 ± 0.017.

Turning to TTTGAAGGGA, the switch fluorescence ratio is 0.996 ± 0.042.

For the sequence TGGTAGTGGG, the switch fluorescence ratio amounted to 0.98 ± 0.026.

Take GACATTGTTA: the switch fluorescence ratio turned out to be 1.01 ± 0.063.

Regarding GCGCTAGTTT, the switch fluorescence ratio stood at 1 ± 0.016.

GAAAAGCCCC: the switch fluorescence ratio came out at 1.09 ± 0.059.

Consider ATAAAAGCTT, for which the switch fluorescence ratio stood at 1.03 ± 0.014.

For TAGACTATGG, the switch fluorescence ratio was 1.04 ± 0.023.

Turning to AGCTATGTTA, the switch fluorescence ratio turned out to be 1.03 ± 0.0045.

For GATTTGGTGT, the switch fluorescence ratio came out at 1.03 ± 0.057.

Turning to TGAAGGTAAC, the switch fluorescence ratio turned out to be 0.98 ± 0.012.

In the case of CGAGTCCCAC, the switch fluorescence ratio is 1 ± 0.12.

Turning to TCATACCCTG, the switch fluorescence ratio was determined as 1.024 ± 0.0061.

On to TTCCGGGCCC, for which the switch fluorescence ratio came out at 1.16 ± 0.041.

As to TTTATTTATG, the switch fluorescence ratio came out at 1.007 ± 0.0065.

The values above are taken from the supplement of paper PMC10126150.
